From paper PMC4694715 come the findings set out here.

The target in experiment [1] is CD20 (human (endogenous in Ramos)) (UniProt P11836).
Experiment [2] shares this target. This is another data set of the same source.
Experiment [3] shares this target. Description: flow cytometry on cells; 1E6 Ramos cells incubated with 0.5μg (16.7nM) or 1μg (33.3nM) of the RTX variant (non-saturating amounts); bound antibody detected with FITC murine monoclonal anti human kappa light chain antibody; read-out: MFI of the variant divided by MFI of the IgG1 control. (Flow cytometry measures light scatter and fluorescence of single cells or particles in a stream.)

UniProt P11836, sequence (P11836 whole entry): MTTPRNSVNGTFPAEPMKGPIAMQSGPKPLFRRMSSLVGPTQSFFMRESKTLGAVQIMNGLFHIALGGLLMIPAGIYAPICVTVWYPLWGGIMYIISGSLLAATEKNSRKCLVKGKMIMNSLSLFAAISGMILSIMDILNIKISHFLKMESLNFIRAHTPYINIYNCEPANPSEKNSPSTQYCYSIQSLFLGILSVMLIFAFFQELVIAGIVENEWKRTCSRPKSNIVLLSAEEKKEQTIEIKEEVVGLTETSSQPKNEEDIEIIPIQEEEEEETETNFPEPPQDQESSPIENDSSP

Consider Rituximab IgG4P (antibody), for which, in experiment [1], the apoptosis of Ramos cells after 24h (AnnexinV-FITC positive cells, absolute), 2000ng antibody, no crosslinker is 41 % of cells. Besides, the apoptosis of Ramos cells after 24h, normalised to the IgG1 control without crosslinker (100%) (% of IgG1 control) in experiment [2] amounted to 441.
Regarding Rituximab IgG1 a1 (antibody), in experiment [1], the apoptosis of Ramos cells after 24h (AnnexinV-FITC positive cells, absolute), 2000ng antibody, no crosslinker was 11 % of cells.
Rituximab IgG2 (antibody): the apoptosis of Ramos cells after 24h (AnnexinV-FITC positive cells, absolute), 2000ng antibody, no crosslinker in experiment [1] was 49 % of cells. In experiment [2], the apoptosis of Ramos cells after 24h, normalised to the IgG1 control without crosslinker (100%) (% of IgG1 control) was found to be 546. In experiment [3], the IgG1 signal ratio (MFI of RTX variant divided by MFI of IgG1 control) at 0.5μg was determined as 0.37 and the IgG1 signal ratio (MFI of RTX variant divided by MFI of IgG1 control) at 1μg was 0.42.
